From paper PMC10171807 (Science Advances, 2023)
Positions count from the first letter of the chain named. Numbers in names are those of the source. Where “and” joins values, the source holds several entries; their conditions need not be identical. Equal values may be shown once. Read-outs that look alike come from different tables or passages of the source.

B1: _(PARL)Skd3 (PARL-cleaved Skd3, human ClpB), wild type (enzyme, UniProt Q9H078 127-707, looked up)
chain: YSKSPSNKDAALLEAARANNMQEVSRLLSEGADVNAKHRLGWTALMVAAINRNNSVVQVLLAAGADPNLGDDFSSVYKTAKEQGIHSLEDGGQDGASRHITNQWTSALEFRRWLGLPAGVLITREDDFNNRLNNRASFKGCTALHYAVLADDYRTVKELLDGGANPLQRNEMGHTPLDYAREGEVMKLLRTSEAKYQEKQRKREAEERRRFPLEQRLKEHIIGQESAIATVGAAIRRKENGWYDEEHPLVFLFLGSSGIGKTELAKQTAKYMHKDAKKGFIRLDMSEFQERHEVAKFIGSPPGYVGHEEGGQLTKKLKQCPNAVVLFDEVDKAHPDVLTIMLQLFDEGRLTDGKGKTIDCKDAIFIMTSNVASDEIAQHALQLRQEALEMSRNRIAENLGDVQISDKITISKNFKENVIRPILKAHFRRDEFLGRINEIVYFLPFCHSELIQLVNKELNFWAKRAKQRHNITLLWDREVADVLVDGYNVHYGARSIKHEVERRVVNQLAAAYEQDLLPGGCTLRITVEDSDKQLLKSPELPSPQAEKRLPKLRLEIIDKDSKTRRLDIRAPLHPEKVCNTI
B2: _(PARL)Skd3_WB (PARL-cleaved Skd3 with the Walker B mutation E455Q) (enzyme, human, UniProt Q9H078 127-707, looked up)
chain: B1 chain with E329Q
B3: Skd3_L1,L2GH_WB (_(PARL)Skd3 with the L1GH and L2GH turn loop mutations and E455Q) (enzyme)
chain: B1 chain with N19G, N20H, R52G, N53H, E329Q
B4: _(PARL)Skd3_ARD (isolated ankyrin repeat domain of Skd3) (domain or fragment)
chain: VTTGSLGEPQWLRVATGGRPGTSPALFSGRGAATGGRQGGRFDTKCLAAATWGRLPGPEETLPGQDSWNGVPSRAGLGMCALAAALVVHCYSKSPSNKDAALLEAARANNMQEVSRLLSEGADVNAKHRLGWTALMVAAINRNNSVVQVLLAAGADPNLGDDFSSVYKTAKEQGIHSLEDGGQDGASRHITNQWTSALEFRRWLGLPAGVLITREDDFNNRLNNRASFKGCTALHYAVLADDYRTVKELLDGGANPLQRNEMGHTPLDYAREGEVMKLLRTSEAKYQEKQR

Tests used:
[1] = molecular target: _(MPPΔ3)Skd3_WB (MPP-cleaved Skd3 without the C-terminal hydrophobic residues of the inhibitory sequence, with E455Q) (human); assay: mass photometry
[2] = molecular target: _(MPPΔ3)Skd3_WB (MPP-cleaved Skd3 without the C-terminal hydrophobic residues of the inhibitory sequence, with E455Q) (human); assay: mass photometry; remark: listed apart in the source
[3] = molecular target: FITC-casein (UniProt P02662); assay: fluorescence polarisation
Chain of FITC-casein (P02662 16-214): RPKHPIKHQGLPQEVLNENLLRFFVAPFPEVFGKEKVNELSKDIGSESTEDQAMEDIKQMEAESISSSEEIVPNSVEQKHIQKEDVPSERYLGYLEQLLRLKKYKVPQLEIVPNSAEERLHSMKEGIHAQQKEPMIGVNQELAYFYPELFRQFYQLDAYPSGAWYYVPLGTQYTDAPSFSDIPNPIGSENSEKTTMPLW

[4] = molecular target: the molecule itself; assay: electron microscopy, 2D class averages
[5] = molecular target: FITC-casein (UniProt P02662); assay: fluorescence polarisation; remark: listed apart in the source
[6] = molecular target: the molecule itself; assay: mass photometry

Molecule	Kd [5] [µM]	stoichiometry N [6]	further results
_(MPPΔ3)Skd3_WB (MPP-cleaved Skd3 without the C-terminal hydrophobic residues of the inhibitory sequence, with E455Q) (enzyme)	–	–	stoichiometry N [1]: 12; stoichiometry N [2]: 6
B1	3.4	–	Kd [3]: 0.86 µM; stoichiometry N [4]: 6 and 7
B2	3.6	6	–
B3	–	6 and 12	ratio of dodecamer relative to hexamer [6]: 0.41 ± 0.12
B4	3.7	–	–
